# Test results from the supplement of paper PMC10567573.
# B1: RAB11A (parent)
# chain: AVPTDEARAFAEKNGLSFIETSAL
# Variants of: B1
# Experiment: protein stability index of a GFP-peptide fusion (GPS, HEK-293T) (PSI 1-6); higher = more stable
# Conditions: c terminus: a fixed tail appended
# 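Note: lentivirally expressed fusions sorted by FACS into six bins by GFP to DsRed ratio, PSI derived from sequencing read proportions per bin multiplied by bin number.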
row,Variant,protein stability index
1,DVPTDEARAFAEKNGLSFIETSAL [A1D],2.82
2,NVPTDEARAFAEKNGLSFIETSAL [A1N],2.4
3,SVPTDEARAFAEKNGLSFIETSAL [A1S],2.56
4,CVPTDEARAFAEKNGLSFIETSAL [A1C],1.45
5,AVPTDEARAFAEKNGLSFIETIAL [S22I],1.76
6,AVPTDEARAFAEKNGLSFIETAAL [S22A],2.35
7,AVPTDEARAFAEKNGLSFIETQAL [S22Q],3.14
8,AVPTDEARAFAEKNGLSFIETTAL [S22T],2.49
9,AVPTDEARAFAEKNGLSFIETWAL [S22W],1.6
10,AVPTDEARAFAEKNGLSFIETDAL [S22D],3.84
11,AVPTDEARAFAEKNGLSFIETVAL [S22V],2.64
12,AVPTDEARAFAEKNGLSFIETLAL [S22L],2.5
13,AQPTDEARAFAEKNGLSFIETSAL [V2Q],2
14,AIPTDEARAFAEKNGLSFIETSAL [V2I],2.18
15,AEPTDEARAFAEKNGLSFIETSAL [V2E],2.97
16,AVPTDEARATAEKNGLSFIETSAL [F10T],2.91
17,AVPTDEARAAAEKNGLSFIETSAL [F10A],2.76
18,AVPTDEARAWAEKNGLSFIETSAL [F10W],2.36
19,AVPTDEARASAEKNGLSFIETSAL [F10S],2.84
20,AVPTDEARANAEKNGLSFIETSAL [F10N],2.9
21,AVPTDEARACAEKNGLSFIETSAL [F10C],2.43
22,AVPTDEARAVAEKNGLSFIETSAL [F10V],2.46
23,AVPTDEARAGAEKNGLSFIETSAL [F10G],2.24
24,AVPTDEARAFAEKNGLSFIETSAD [L24D],4.79

row,Variant,protein stability index
1,AVPTDEARAFAEKNGLSFIETSAK [L24K],3.53
2,AVPTDEARAFAEKNGLSFIETSAA [L24A],4
3,AVPTDEARAFAEKNGLSFIETSAW [L24W],2.72
4,AVPTDEARAFAEKNGLSFIETSAG [L24G],5.05
5,AVPTDEARAFAEKNGLSFIETSAV [L24V],3.31
6,AVPTDEARAFAEKNGLSFIETSAF [L24F],2.73
7,AVPTDEARAFAEKNGLSFIETSAY [L24Y],3.04
8,AVPTDEARAFAEKNGLSFIETSAE [L24E],5.03
9,AVPTDEARAFAEKNGLSFIETSAP [L24P],4.62
10,AVPTDEARAFAEKNGLSFIETSAS [L24S],4.39
11,AVPTDEARAFAEKNGLSFIETSAC [L24C],3.07
12,AVATDEARAFAEKNGLSFIETSAL [P3A],2.61
13,AVLTDEARAFAEKNGLSFIETSAL [P3L],2.59
14,AVGTDEARAFAEKNGLSFIETSAL [P3G],2.41
15,AVWTDEARAFAEKNGLSFIETSAL [P3W],2.08
16,AVHTDEARAFAEKNGLSFIETSAL [P3H],2.54
17,AVITDEARAFAEKNGLSFIETSAL [P3I],2.36
18,AVPTDEPRAFAEKNGLSFIETSAL [A7P],2.04
19,AVPTDENRAFAEKNGLSFIETSAL [A7N],2.33
20,AVPTDEWRAFAEKNGLSFIETSAL [A7W],2.09
21,AVPTDETRAFAEKNGLSFIETSAL [A7T],2.57
22,AVPTDEYRAFAEKNGLSFIETSAL [A7Y],2.45
23,AVPTDEERAFAEKNGLSFIETSAL [A7E],3.29
24,AVPTDERRAFAEKNGLSFIETSAL [A7R],2.46

row,Variant,protein stability index
1,AVPTDEARAFAEKNGLSFIETSWL [A23W],1.55
2,AVPTDEARAFAEKNGLSFIETSNL [A23N],2.87
3,AVPTDEARAFAEKNGLSFIETSHL [A23H],2.04
4,AVPTDEARAFAEKNGLSFIETSTL [A23T],2.08
5,AVPTDEARAFAEKNGLSFIETSPL [A23P],2.82
6,AVPTDEARAFAEKNGLSFIETSDL [A23D],4.18
7,AVPTDEARAFAEKNGLSFIETSEL [A23E],3.68
8,AVPTDEARAFAEKNSLSFIETSAL [G15S],2.06
9,AVPTDEARAFAEKNQLSFIETSAL [G15Q],2.58
10,AVPTDEARAFAEKNRLSFIETSAL [G15R],2.52
11,AVPTDEARAFAEKNVLSFIETSAL [G15V],2.64
12,AVPTDEARAFAEKNCLSFIETSAL [G15C],2.59
13,AVPTDEARAFAEKNYLSFIETSAL [G15Y],1.74
14,AVPTDEARAFAEKNPLSFIETSAL [G15P],2.2
15,AVPTDEARAFAEKNFLSFIETSAL [G15F],1.82
16,AVPTDEARAFAEKNGLSFILTSAL [E20L],1.74
17,AVPTDEARAFAEKNGLSFIFTSAL [E20F],1.79
18,AVPTDEARAFAEKNGLSFIVTSAL [E20V],1.86
19,AVPTDEARAFAEKNGLSFICTSAL [E20C],2.01
20,AVPTDEARAFAEKNGLSFIATSAL [E20A],2.27
21,AVPTDEARAFAEKNGLSFINTSAL [E20N],2.24
22,AVPTDEARAFAEKNGLSFIQTSAL [E20Q],2.34
23,AVPTDEARAFAEKNGLSFIKTSAL [E20K],2.8
24,AVPTDEARAFAEKNGLSFIMTSAL [E20M],1.81

row,Variant,protein stability index
1,AVPTDEARAFLEKNGLSFIETSAL [A11L],2.32
2,AVPTDEARAFMEKNGLSFIETSAL [A11M],2.24
3,AVPTDEARAFFEKNGLSFIETSAL [A11F],1.94
4,AVPTDEARAFKEKNGLSFIETSAL [A11K],1.96
5,AVPTDEARAFQEKNGLSFIETSAL [A11Q],2.21
6,AVPTDEARAFEEKNGLSFIETSAL [A11E],2.76
7,AVPTDEARAFPEKNGLSFIETSAL [A11P],2.33
8,AVPTDEARAFYEKNGLSFIETSAL [A11Y],2.2
9,AVPTDEARAFAEENGLSFIETSAL [K13E],2.81
10,AVPTDEARAFAETNGLSFIETSAL [K13T],2.18
11,AVPTDEARAFAEANGLSFIETSAL [K13A],2.57
12,AVPTDEARAFAEMNGLSFIETSAL [K13M],2.12
13,AVPTDEARAFAEYNGLSFIETSAL [K13Y],2.49
14,AVPTDEARAFAEFNGLSFIETSAL [K13F],2.24
15,AVPTDEARAFAEWNGLSFIETSAL [K13W],4.07
16,AVPTDEARAFAENNGLSFIETSAL [K13N],2.43
17,AVPTDEARAFAEVNGLSFIETSAL [K13V],2.23
18,AVPTFEARAFAEKNGLSFIETSAL [D5F],1.92
19,AVPTPEARAFAEKNGLSFIETSAL [D5P],2.23
20,AVPTHEARAFAEKNGLSFIETSAL [D5H],2.33
21,AVPTNEARAFAEKNGLSFIETSAL [D5N],1.95
22,AVPTGEARAFAEKNGLSFIETSAL [D5G],1.94
